Measured values taken from PMC6423285.

How the values were obtained:
[1] = molecular target: NBS1 (UniProt O60934); assay: peptide-bead pull-down from cell lysate; conditions: reference: non-phospho peptide …; sites S462
[2] = molecular target: NBS1 FHA+BRCT1/2 (UniProt O60934); assay: peptide-bead pull-down of purified GST fusion; conditions: reference: non-phospho peptide …; sites S462

binding against the reference [1]: stronger
binding against the reference [2]: stronger
Substance: UFL1 (from UniProt O94874) pS462 peptide
